Values joined by “and” are separate entries in the source; they are usually repeats but may differ in a detail not shown here. Identical values can stand only once. “Also recorded” adds a separate entry of the source.
B1: murine 16B5: murine anti-clusterin (anti-sCLU) monoclonal antibody 16B5 used in the mouse studies; VL SEQ ID NO:7, VH SEQ ID NO:8 (antibody, V domains shown)
VH: EVQLQQSGAELVKPGASVRLSCTTSGFNIKDIYMHWVKQRPEQGLEWIGRIDPAYGNTKYDPKFQGKATITADTSSNTAYLQLSSLTSEDTAVYYCARRYDTAMDYWGQGTSVTVSS
VL: DIVMSQSPSSLAVSAGEKVTMSCKSSQSLLNSRTRKNYLAWYQQKPGQSPKLLIYWASTRESGVPDRFTGSGSGTDFTLTISSVQAEDLAVYYCKQSYNLWTFGGGTKLEFK
modifications: Murine 16B5 VH; Murine 16B5 VL

How the values were obtained:
Type in all cases: in vivo, Balb/c mice
[1] = test system: 4T1 mouse mammary carcinoma cells; assay: 4T1 model: number of metastatic lung nodules; settings: Day 37
Protocol: (§1) Five groups, each consisting of 10 female Balb/c mice were assigned to this study (see Table 5 below). All animals received subcutaneous implantation of 4T1 mouse mammary carcinoma cells in the 4th inguinal mammary gland. Treatment was initiated on the day of implantation (defined as Day 1). Animals from Group 1 (Gr. 1) received IP treatment of saline vehicle control twice a week for the duration of the study. Animals from Group 2 (Gr. 2) received 10 mg/kg of docetaxel weekly for five weeks by IP administration. Animals from Group 3 (Gr. 3) received 10 mg/kg of docetaxel weekly for two weeks and 10 mg/kg of AB-16B5, twice weekly for five weeks. Animals from Group 4 (Gr. 4) received 10 mg/kg of docetaxel weekly and 5 mg/kg of 16B5 twice weekly each over the course of a five weeks treatment. Animals from Group 5 (Gr. 5) received AB-16B5 twice weekly for five weeks. On Day 36, the primary tumors were excised and on Day 37, the animals were sacrificed and the number of grossly visible metastatic nodules on the surface of the lungs was counted.

4T1 primary tumors = assay: 4T1 model: CD45+ immune cells in primary tumors
Protocol: as §1
The primary tumors excised at Day 16 post implantation, were processed with collagenase and hyaluronidase and immune cells were purified by positive selection using magnetic latex beads coated with an anti-CD45 antibody. […]

4T1 tumor cells = assay: INFγ secretion of tumor infiltrating lymphocytes co-cultured with 4T1 cells (ELISA)
Protocol: (§2) Balb/c mice were orthotopically implanted with 5×10^5 4T1 cells in the 4′ mammary fat pad. Animals received intraperitoneal (IP) AB-16B5 (murine 16B5) 10 mg/kg twice weekly in combination with IP docetaxel 10 mg/kg weekly (Group 15: animals 1501, 1502 and 1503) or IP AB-16B5 10 mg/kg twice weekly (Group 25: […]). The primary tumor was surgically removed at Day 16 post-implantation. The animals were sacrificed at Day 36 and the lungs were excised and each visible lung metastasis was carefully dissected. Each visible metastatic nodule, if any, was excised and processed for a rapid expansion of tumor infiltrating lymphocyte protocol. The metastatic nodules were sectioned into small pieces of 2-3 mm edge that were individually grown in 24 well plates containing culture medium supplemented with FBS, IL2, IL7, ITS (1,000 U/mL IL2, 2.0 ng/mL IL7 and 1× insulin—transferrin—selenium cocktail (Gibco 41400-045)).
After three weeks in culture, 100,000 cells were taken from each of the lymphocyte cultures (six cultures corresponding to three animals from Group 15 and three animals from Group 25) and placed in culture with 100,000 4T1 tumor cells. After overnight co-culture, the supernatant was recovered for INFγ quantification by ELISA.

4T1 lung metastases [2] = assay: 4T1 orthotopic model: immunohistochemistry of lung metastases
Excerpt: Balb/c mice were orthotopically implanted with 5×10^5 4T1 cells in the 4′ mammary fat pad. Animals received IP saline treatment thrice weekly. The primary tumor was surgically removed at Day 16 post-implantation. The animals were sacrificed at Day 36 and the lungs were excised. Tissues were fixed in paraformaldehyde and processed for paraffin embedding. Tissue sections were probed with anti-mouse CD3, anti-mouse CD8 and anti-mouse B220 antibodies. […] Results presented in FIG. 1 indicate that the 4T1 lung metastases create an immune cold microenvironment which prevents the infiltration of B and T lymphocytes in tumors. Delineated regions indicate that CD3 and CD8 T lymphocytes are restricted in the tumor margin as a consequence of EMT.
Animals bearing 4T1 tumors were treated with the AB-16B5 antibody (murine 16B5) thrice a week IP at 10 mg/kg. The primary tumor was surgically removed at Day 16 post-implantation. The animals were sacrificed at Day 36 and the lungs were excised. Tissues were fixed in paraformaldehyde and processed for paraffin embedding. Tissue sections were probed with anti-mouse CD3, anti-mouse CD8 and anti-mouse B220 antibodies.

4T1 lung metastases [3] = assay: Flow cytometry immunophenotyping of lymphocytes from 4T1 lung metastases; settings: Day 36 post-implantation, FIG. 4A and FIG. 4B
Protocol: as §2
The lymphocytes were stimulated with anti-CD3 and anti-CD28 monoclonal antibodies. Lymphocytes from each donor animal were pooled and processed for flow cytometry analysis with antibodies against CD45 (lymphocyte common antigen), CD3, CD4, CD8 and CD19 (B-cell biomarker) (FIG. 4A and FIG. 4B). The resulting single cell preparations were initially selected on their size to select those corresponding to immune cells. […]

[4] = 10 mg/kg IP thrice a week, Day 36

Molecule | metastatic lung nodules ([1]; Group 2: docetaxel 10 mg/kg IP 1X/week for 5 weeks) | CD45+ immune cells in primary tumors (4T1 primary tumors; Group 2: docetaxel 10 mg/kg IP 1X/week) | metastatic lung nodules ([1]; Group 5: AB-16B5 10 mg/kg IP 2X/week for 5 weeks) | INFγ (4T1 tumor cells; Group 25 (samples 2501-2503, one value per animal): AB-16B5 10 mg/kg IP twice weekly, overnight co-culture with 4T1 cells) | INFγ secretion level of lymphocytes isolated from lung metastatic nodules (4T1 tumor cells; in the presence of 4T1 cells) | infiltration of lung metastases with CD3 and CD8 T cells (4T1 lung metastases [2]; [4]) | plasmocytes penetration in tumors (4T1 lung metastases [2]; [4]) | lung metastases, number and size (4T1 lung metastases [2]; 10 mg/kg IP thrice a week, primary tumor removed Day 16, sacrifice Day 36) | B and T lymphocytes infiltration in 4T1 lung metastases (4T1 lung metastases [2]; FIG. 2A) | infiltration of 4T1 lung metastases by B and T lymphocytes (4T1 lung metastases [3]) | CD45+ immune cells in primary tumors (4T1 primary tumors; Group 5: AB-16B5 10 mg/kg IP 2X/week)
CC(=O)O[C@@]12CO[C@@H]1C[C@H](O)[C@@]1(C)C(=O)[C@H](O)C3=C(C)[C@@H](OC(=O)[C@H](O)[C@@H](NC(=O)OC(C)(C)C)c4ccccc4)C[C@@](O)([C@@H](OC(=O)c4ccccc4)[C@H]21)C3(C)C [docetaxel] | as many metastatic lung nodules as the saline control group; also recorded: relatively ineffective | very few CD45+ were present | – | – | – | – | – | – | – | – | –
B1 | – | – | less metastatic lung nodules than the saline-control-treated mice | 8538.8 pg/mL and 3770.0 pg/mL and 4538.8 pg/mL | high levels | densely infiltrated with CD3 and CD8 T cells | evidence of plasmocytes penetration | fewer and much smaller lung metastases | Results in B (B220) and T (CD3, CD4, CD8) Lymphocytes Infiltration | infiltrated by B and T lymphocytes | more immune cells

From patent publication US20240199758A1, “METHOD FOR ALLOWING IMMUNE CELLS INFILTRATION IN TUMORS” (Alethia Biotherapeutics Inc., priority 2021, published 2024)
